Broadly, the stoichiometry N is a count of units in the complex or per binding partner.

The source of these data is article PMC12530519.

This test has as its target Ty1c CA(F323S) (S. cerevisiae). As to the kind of experiment: SEC-MALS; individual proteins, 12.5-200 µM, Superdex INCREASE 200 10/300 GL at 298 K, 50 mM Tris-HCl, 800 mM NaCl, 0.5 mM TCEP, 3 mM NaN3, pH 8.5. On the technique in general: In gel filtration, larger molecules generally elute earlier.

Ty1c CA(F323S) (domain or fragment): the stoichiometry N was found to be 2.
